System: HP1a (homodimerization)
Test: Equilibrium analytical ultracentrifugation, HP1a self-association
Conditions: equilibrium AUC

Molecule	weakening of the dimerization (dissociation) constant relative to wild-type CSD
W200A: HP1a-CSD point mutant W200A (protein, left off: His6 (…), N-terminal, kept | two lysines for solubility, C-terminal, kept) EQDTIPVSGSTGFDRGLEAEKILGASDNNGRLTFLIQFKGVDQAEMVPSSVANEKIPRMVIHFYEERLSAYSDNED	two-fold weakening
S199ES202E: HP1a-CSD phosphorylation mimic, S199E and S202E double mutant (protein, left off: His6 (…), N-terminal, kept | two lysines for solubility, C-terminal, kept) EQDTIPVSGSTGFDRGLEAEKILGASDNNGRLTFLIQFKGVDQAEMVPSSVANEKIPRMVIHFYEERLEWYEDNED	6 fold

Source: article PMC3154745 (Chembiochem : a European journal of chemical biology, 2011)
